Assay results taken from patent US20110182817A1 (NATIONAL UNIVERSITY CORPORATION OKAYAMA UNIVERSITY, published 2011).

Molecular target: T1, human LDL oxidatively modified by copper sulfate (human, UniProt P04114 28-4563, limits assumed, oxidatively modified by copper sulfate)
T1 construct: Lipoprotein particle; also called oxidized LDL
Test: ELISA on immobilized Cu-oxidized human LDL, anti-mouse IgM-HRP
Procedure: 50 μl of […] human LDL oxidatively modified by copper sulfate was added to each well of 96-well microtiter plates (Immulon-2), and incubated at 4° C. overnight. After washing with PBS-Tween, the plates were blocked with 0.5% BSA-PBS. Test samples (culture supernatants appropriately diluted with PBS containing 0.1% BSA) were incubated in the plates at room temperature for one hour. After the plates were washed three times with PBS-Tween, an HRP-labeled anti-mouse IgM antibody was incubated in the plates at room temperature for one hour. After the plates were washed three times with PBS-Tween, 0.03% H₂O₂ and 0.1 M citrate buffer […] containing 0.4 mg/ml orthophenylenediamine (OPD) were added to the plates. After ten minutes of incubation, the reaction was stopped by adding an equal volume of 2N H₂SO₄. Absorbance was measured at 490 nm (FIG. 2). FIG. 2 is a graph showing the reactivities of monoclonal antibodies to NLO and oxidized LDL. The monoclonal antibodies were produced by hybridomas of the established five clones.

T1 sequence (P04114 28-4563 limits assumed): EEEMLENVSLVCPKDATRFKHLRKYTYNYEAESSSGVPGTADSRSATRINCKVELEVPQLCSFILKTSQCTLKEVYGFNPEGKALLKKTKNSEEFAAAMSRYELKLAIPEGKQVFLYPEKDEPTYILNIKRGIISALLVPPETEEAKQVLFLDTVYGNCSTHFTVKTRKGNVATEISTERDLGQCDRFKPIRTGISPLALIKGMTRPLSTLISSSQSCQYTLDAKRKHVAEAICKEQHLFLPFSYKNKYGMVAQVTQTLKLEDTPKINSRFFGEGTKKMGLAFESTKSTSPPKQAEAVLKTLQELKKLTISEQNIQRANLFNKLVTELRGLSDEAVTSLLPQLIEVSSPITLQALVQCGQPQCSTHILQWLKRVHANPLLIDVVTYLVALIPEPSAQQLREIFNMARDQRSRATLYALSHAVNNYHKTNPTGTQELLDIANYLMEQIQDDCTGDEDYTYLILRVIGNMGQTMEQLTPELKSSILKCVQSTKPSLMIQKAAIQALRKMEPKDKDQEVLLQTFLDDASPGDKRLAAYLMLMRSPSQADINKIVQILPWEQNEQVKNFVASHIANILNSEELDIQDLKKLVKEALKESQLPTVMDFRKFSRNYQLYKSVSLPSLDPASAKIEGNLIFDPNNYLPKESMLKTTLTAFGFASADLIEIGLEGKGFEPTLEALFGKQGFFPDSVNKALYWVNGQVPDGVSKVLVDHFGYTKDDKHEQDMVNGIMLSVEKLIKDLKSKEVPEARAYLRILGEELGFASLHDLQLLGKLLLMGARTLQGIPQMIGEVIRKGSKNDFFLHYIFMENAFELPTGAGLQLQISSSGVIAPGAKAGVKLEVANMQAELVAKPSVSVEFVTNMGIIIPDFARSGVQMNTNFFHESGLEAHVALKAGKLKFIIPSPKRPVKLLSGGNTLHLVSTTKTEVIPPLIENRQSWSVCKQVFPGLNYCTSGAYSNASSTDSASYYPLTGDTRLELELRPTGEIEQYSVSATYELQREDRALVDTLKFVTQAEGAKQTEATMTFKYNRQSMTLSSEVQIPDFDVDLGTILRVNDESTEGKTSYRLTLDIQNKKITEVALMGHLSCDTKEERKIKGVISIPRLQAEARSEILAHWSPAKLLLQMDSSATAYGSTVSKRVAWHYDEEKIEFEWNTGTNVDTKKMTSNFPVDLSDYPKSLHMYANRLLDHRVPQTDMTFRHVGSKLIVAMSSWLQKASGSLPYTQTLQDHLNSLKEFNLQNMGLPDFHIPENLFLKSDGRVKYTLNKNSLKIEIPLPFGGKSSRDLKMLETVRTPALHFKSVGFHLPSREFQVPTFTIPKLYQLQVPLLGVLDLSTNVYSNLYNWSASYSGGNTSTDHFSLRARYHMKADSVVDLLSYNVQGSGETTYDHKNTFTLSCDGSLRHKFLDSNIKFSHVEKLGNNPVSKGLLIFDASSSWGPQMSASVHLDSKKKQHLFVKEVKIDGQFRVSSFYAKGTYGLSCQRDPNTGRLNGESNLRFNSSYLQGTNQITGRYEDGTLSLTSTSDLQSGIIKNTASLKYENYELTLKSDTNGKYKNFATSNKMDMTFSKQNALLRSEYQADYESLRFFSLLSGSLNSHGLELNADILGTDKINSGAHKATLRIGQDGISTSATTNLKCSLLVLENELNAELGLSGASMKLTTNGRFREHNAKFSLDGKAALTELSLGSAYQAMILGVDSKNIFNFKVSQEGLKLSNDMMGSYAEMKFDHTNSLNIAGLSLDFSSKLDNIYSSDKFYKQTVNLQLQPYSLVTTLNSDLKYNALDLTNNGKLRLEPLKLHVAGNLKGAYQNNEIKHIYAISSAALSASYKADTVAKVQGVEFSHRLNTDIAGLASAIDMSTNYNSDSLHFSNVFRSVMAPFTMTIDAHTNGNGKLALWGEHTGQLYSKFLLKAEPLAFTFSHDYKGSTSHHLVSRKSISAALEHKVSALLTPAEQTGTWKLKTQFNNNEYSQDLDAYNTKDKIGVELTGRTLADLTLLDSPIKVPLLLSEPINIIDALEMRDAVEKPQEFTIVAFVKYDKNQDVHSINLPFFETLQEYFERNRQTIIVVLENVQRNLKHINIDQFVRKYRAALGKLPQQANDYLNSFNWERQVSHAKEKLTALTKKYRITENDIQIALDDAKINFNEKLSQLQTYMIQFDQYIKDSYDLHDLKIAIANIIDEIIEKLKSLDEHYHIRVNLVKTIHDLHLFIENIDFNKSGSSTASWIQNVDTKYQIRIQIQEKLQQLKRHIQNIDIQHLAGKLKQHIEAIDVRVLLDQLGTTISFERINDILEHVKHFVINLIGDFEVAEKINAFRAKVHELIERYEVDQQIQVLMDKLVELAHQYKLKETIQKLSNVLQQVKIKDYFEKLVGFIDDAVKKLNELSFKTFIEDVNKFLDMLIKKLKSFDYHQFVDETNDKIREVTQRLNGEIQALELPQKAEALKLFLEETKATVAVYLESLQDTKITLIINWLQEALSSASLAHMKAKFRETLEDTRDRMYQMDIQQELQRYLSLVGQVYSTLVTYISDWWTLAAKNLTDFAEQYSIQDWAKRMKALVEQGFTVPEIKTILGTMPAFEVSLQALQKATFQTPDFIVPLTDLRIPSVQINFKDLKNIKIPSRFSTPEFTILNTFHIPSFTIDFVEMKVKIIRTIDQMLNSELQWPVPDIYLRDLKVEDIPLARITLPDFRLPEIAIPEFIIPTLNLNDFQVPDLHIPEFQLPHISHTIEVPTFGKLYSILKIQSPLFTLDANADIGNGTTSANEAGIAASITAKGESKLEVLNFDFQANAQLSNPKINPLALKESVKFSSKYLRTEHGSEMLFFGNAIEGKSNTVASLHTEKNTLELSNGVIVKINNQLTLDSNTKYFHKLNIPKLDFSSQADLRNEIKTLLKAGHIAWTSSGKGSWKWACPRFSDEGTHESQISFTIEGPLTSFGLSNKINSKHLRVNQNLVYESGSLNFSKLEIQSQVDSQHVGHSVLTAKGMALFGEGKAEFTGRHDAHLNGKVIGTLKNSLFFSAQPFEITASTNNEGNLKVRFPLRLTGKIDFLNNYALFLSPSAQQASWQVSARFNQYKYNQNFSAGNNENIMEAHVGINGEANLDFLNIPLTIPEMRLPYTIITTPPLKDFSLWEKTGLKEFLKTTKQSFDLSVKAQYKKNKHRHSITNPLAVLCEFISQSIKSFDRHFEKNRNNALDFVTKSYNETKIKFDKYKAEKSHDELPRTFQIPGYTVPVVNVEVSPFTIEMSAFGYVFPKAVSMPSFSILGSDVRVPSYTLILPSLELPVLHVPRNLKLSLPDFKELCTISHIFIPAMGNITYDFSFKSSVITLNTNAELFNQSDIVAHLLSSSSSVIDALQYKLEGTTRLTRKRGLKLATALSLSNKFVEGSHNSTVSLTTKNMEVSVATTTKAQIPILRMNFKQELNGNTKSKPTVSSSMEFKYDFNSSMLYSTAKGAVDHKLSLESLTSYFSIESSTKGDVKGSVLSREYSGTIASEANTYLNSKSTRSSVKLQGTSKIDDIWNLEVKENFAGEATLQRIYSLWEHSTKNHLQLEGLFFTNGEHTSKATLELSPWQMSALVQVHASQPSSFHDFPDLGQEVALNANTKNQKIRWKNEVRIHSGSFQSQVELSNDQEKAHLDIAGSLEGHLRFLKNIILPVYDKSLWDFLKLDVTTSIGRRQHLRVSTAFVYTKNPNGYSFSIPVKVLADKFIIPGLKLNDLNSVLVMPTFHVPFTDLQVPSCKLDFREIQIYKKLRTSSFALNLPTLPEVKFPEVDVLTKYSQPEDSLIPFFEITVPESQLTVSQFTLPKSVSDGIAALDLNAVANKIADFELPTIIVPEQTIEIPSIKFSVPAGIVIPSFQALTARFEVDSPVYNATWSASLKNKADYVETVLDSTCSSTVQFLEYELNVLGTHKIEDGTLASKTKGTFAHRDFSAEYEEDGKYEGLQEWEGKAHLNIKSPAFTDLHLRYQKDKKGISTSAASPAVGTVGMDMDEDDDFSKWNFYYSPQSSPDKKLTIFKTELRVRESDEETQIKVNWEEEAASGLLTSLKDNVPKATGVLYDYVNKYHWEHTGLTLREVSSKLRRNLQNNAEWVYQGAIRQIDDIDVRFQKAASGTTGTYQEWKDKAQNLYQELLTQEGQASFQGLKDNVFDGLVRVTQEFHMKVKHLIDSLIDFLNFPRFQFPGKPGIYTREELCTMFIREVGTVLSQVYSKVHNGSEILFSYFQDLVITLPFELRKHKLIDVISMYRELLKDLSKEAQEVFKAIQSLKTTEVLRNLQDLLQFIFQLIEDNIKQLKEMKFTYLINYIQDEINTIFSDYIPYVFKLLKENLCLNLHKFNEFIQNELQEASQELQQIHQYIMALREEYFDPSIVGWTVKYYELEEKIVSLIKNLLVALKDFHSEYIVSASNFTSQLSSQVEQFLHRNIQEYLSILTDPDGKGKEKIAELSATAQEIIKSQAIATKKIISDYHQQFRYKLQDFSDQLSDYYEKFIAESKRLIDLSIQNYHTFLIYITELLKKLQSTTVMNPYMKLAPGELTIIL

binding result | Binder
no binding | CL56-369 (antibody, IgM, V domains shown, Mouse monoclonal IgM, kappa, from mice immunized with arteriosclerotic plaque homogenate) VH: QVQLQQPGAELVKPGASVKLSCKASGYTFTSYWMHWVKQRPGQGLEWIGEIDPSDSYTNYNQKFKGKATLTVDKSSSTAYMQLSSLTSEDSAVYYCARGDMDAMDYWGQGTSVTVSS VL: ETTVTQSPASLSMAIGEKVTIRCITSTDIDDDMNWYQQKPGEPPKLLISEGNTLRPGVPSRFSSSGYGTDFVFTIENMLSEDVADYYCLQSDNLPLTFGAGTKLELK
no binding | CL48-139 (antibody, IgM, V domains shown, Mouse monoclonal IgM, kappa, from mice immunized with arteriosclerotic plaque homogenate) VH: EGQLQQSGAEVVKPGASVKLSCTASGFNIKDTYIHWVKQRPEQGLEWIGRIDPTNGNTKYDPEFQGKATITADTSSNTAYLHLSGLTSEDTAVYYCAKGTLFAYWGQGTLVTVSA VL: DIKMTQSPSSMYASLGERVTFTCKASQDINNYLTWVQQKPGKSPKTLIYRANRLVDGVPSRFSGSGSGQDYSLTISSLEYEDMGIYYCLQYDEFPPTFGGGTKLEIK
